Results published in patent publication US20030007968A1, “Methods of inducing organ transplant tolerance and correcting hemoglobinopathies” (priority 2001, published 2003).

Columns and labels:
[1] = with marrow rescue; cited from earlier work
[2] = test system: C57BL/6 (B6) recipient mice; experiment: Congenic T cell-depleted bone marrow transplant after single busulfan dose, donor chimerism by flow cytometry; format: in vivo, mouse; conditions: busulfan 0, 10, 20, 30 mg/kg i.p. one day before 2×10^7 congenic T cell-depleted bone marrow cells
Experimental: Bone marrow preparation and treatment regimens.
Similar results were achieved when the busulfan was administered six or twelve hours before the administration of the T cell-depleted bone marrow cells.

[3] = target: T1, CD80Ig (Homo sapiens, UniProt P33681); experiment: BIAcore surface plasmon resonance equilibrium and kinetic binding to immobilized CD80Ig; conditions: for koff / kon: immobilized CD80Ig, means±standard deviation from three experiments
T1 construct: Ig (immunoglobulin fusion partner)
Excerpt: (§1) To synthesize and screen soluble CTLA4 mutant molecules with altered affinities for a B7 molecule (e.g. CD80, CD86), a two-step strategy was adopted. The experiments entailed first generating a library of mutations at a specific codon of an extracellular portion of CTLA4 and then screening these by BIAcore analysis to identify mutants with altered reactivity to B7. The Biacore assay system (Pharmacia, Piscataway, N.J.) uses a surface plasmon resonance detector system that essentially involves covalent binding of either CD80Ig or CD86Ig to a dextran-coated sensor chip which is located in a detector. The test molecule can then be injected into the chamber containing the sensor chip and the amount of complementary protein that binds can be assessed based on the change in molecular mass which is physically associated with the dextran-coated side of the sensor chip; the change in molecular mass can be measured by the detector system.
(§2) COS cells were transfected with individual miniprep purified plasmid DNA and propagated for several days. Three day conditioned culture media was applied to BIAcore biosensor chips (Pharmacia Biotech AB, Uppsala, Sweden) coated with soluble CD80Ig or CD86Ig. The specific binding and dissociation of mutant proteins was measured by surface plasmon resonance (O'Shannessy, D. J., et al., 1997 Anal. Biochem. 212:457-468). All experiments were run on BIAcore™ or BIAcore™ 2000 biosensors at 25° C. Ligands were immobilized on research grade NCM5 sensor chips (Pharmacia) using standard N-ethyl-N′-(dimethylaminopropyl) carbodiimidN-hydroxysuccinimide coupling (Johnsson, B., et al. (1991) Anal. Biochem. 198: 268-277; Khilko, S. N., et al.(1993) J. Biol. Chem 268:5425-15434).
(§3) BIAcore analysis conditions and equilibrium binding data analysis were performed as described in J. Greene et al. 1996 J. Biol. Chem. 271:26762-26771 and in U.S. patent application Ser. Nos. 09/579,927, and 60/214,065 which are herein incorporated by reference.
(§4) Senosorgram baselines were normalized to zero response units (RU) prior to analysis. Samples were run over mock-derivatized flow cells to determine background RU values due to bulk refractive index differences between solutions. Equilibrium dissociation constants (Kd) were calculated from plots of Req versus C, where Req is the steady-state response minus the response on a mock-derivatized chip, and C is the molar concentration of analyte. Binding curves were analyzed using commercial nonlinear curve-fitting software (Prism, GraphPAD Software).
(§5) Experimental data were first fit to a model for a single ligand binding to a single receptor (1-site model, i.e., a simple langmuir system, A+B AB), and equilibrium […] constants (Kd=[A]·[B]\[AB]) were calculated from the equation R=Rmax·C/(Kd+C). Subsequently, data were fit to the simplest two-site model of ligand binding (i.e., to a receptor having two non-interacting independent binding sites as described by the equation R=Rmax1·C\(Kd1+C)+Rmax2·C\(Kd2+C).
(§6) The goodness-of-fits of these two models were analyzed visually by comparison with experimental data and statistically by an F test of the sums-of-squares.
(§7) Association and disassociation analyses were performed using BIA evaluation 2.1 Software Pharmacia). Association rate constants kon were calculated in two ways, assuming both homogenous single-site interactions and parallel two-site interactions. For single-site interactions, kon values were calculated according to the equation Rt=Req(1−exp^−ks(t-t0), where Rt is a response at a given time, t; Req is the steady-state response; to is the time at the start of the injection; and ks=dR/dt=kon·Ckoff, where C is a concentration of analyte, calculated in terms of monomeric binding sites. For two-site interactions kon values were calculated according to the equation Rt=Req1(1−exp^−ks1(t-t0)+Req2(1−exp^ks2(t-t0). For each model, the values of kon were determined from the calculated slope (to about 70% maximal association) of plots of ks versus C. […]

[4] = target: T2, CD86Ig (Homo sapiens, UniProt P42081); experiment: BIAcore surface plasmon resonance equilibrium and kinetic binding to immobilized CD86Ig; conditions: for koff / kon: immobilized CD86Ig, means±standard deviation from three experiments; for slower “off” rate than wild type CTLA4Ig: screening of COS culture media samples over immobilized CD86Ig
T2 construct: Ig (immunoglobulin fusion partner)
Excerpt: as §1, §2, §3, §4, §5, §6, §7

[5] = target: T3, CD86Ig (UniProt P42081 24-247, limits assumed); experiment: SPR (BIAcore), CD86Ig immobilized, purified monomeric analyte
T3 construct: Immobilized on the BIAcore chip by amine coupling; also called soluble CD86Ig
T3 sequence (looked up): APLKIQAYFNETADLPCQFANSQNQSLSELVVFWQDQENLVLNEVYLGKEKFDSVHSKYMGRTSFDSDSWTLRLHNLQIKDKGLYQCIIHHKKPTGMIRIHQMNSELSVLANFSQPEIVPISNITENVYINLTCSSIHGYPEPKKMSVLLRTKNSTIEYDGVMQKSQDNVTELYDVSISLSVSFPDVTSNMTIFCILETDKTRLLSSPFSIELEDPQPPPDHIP

[6] = target: T3, CD86Ig; experiment: SPR, immobilized CD86Ig, monomer against dimer (L104EA29YIg)
[7] = target: T3, CD86Ig; experiment: SPR, immobilized CD86Ig
[8] = target: T4, CD80Ig (UniProt P33681 35-242, limits assumed); experiment: SPR (BIAcore), equilibrium, CD80Ig immobilized, purified monomeric analyte
T4 construct: Immobilized on the BIAcore chip by amine coupling; also called soluble CD80Ig
T4 sequence (looked up): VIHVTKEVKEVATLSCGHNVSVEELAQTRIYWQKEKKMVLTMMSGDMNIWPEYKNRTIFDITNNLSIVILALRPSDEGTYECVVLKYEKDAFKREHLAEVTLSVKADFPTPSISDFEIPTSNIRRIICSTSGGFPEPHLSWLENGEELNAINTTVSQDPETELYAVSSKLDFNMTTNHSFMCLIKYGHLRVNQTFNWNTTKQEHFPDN

[9] = target: T4, CD80Ig; experiment: SPR (BIAcore), CD80Ig immobilized, purified monomeric analyte
[10] = target: T3, CD86Ig; experiment: SPR (BIAcore), equilibrium, CD86Ig immobilized, purified monomeric analyte
[11] = target: T4, CD80Ig; experiment: SPR, immobilized CD80Ig

T2 sequence (P42081 with tags, fused parts or gaps limits assumed): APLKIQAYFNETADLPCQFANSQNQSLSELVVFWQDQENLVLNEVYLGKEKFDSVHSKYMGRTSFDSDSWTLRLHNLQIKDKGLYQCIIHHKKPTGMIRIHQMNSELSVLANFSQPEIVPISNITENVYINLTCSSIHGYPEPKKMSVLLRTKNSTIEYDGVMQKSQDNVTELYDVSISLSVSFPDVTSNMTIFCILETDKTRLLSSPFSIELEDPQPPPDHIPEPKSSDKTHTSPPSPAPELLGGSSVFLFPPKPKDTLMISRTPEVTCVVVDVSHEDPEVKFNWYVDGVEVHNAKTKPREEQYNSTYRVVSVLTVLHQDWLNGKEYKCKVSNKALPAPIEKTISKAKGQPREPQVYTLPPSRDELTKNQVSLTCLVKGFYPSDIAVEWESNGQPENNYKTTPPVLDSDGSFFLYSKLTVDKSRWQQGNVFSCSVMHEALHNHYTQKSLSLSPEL
T1 sequence (P33681 with tags, fused parts or gaps limits assumed): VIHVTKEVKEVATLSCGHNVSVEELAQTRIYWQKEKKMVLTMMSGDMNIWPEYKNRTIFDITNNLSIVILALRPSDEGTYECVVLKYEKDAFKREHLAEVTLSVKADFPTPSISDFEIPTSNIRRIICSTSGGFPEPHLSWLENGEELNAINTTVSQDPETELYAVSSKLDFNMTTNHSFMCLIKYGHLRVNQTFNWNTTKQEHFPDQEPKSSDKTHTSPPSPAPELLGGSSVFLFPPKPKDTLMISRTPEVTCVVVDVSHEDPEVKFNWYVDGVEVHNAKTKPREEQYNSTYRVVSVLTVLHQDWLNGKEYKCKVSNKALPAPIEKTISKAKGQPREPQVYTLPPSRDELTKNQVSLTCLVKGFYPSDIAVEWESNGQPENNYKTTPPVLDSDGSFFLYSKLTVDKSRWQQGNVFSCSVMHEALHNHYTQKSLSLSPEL

Molecule: CS(=O)(=O)OCCCCOS(C)(=O)=O [busulfan]
- LD50 [1]: 136 mg/kg
- levels of donor hematopoietic chimerism versus dose [2]: directly proportional to the administered busulfan dose

Molecule: CTLA4XC120S: single chain (monomeric) CTLA4 extracellular domain with cysteine 120 to serine mutation [reference compound]
- koff [3]: 230 ± 10 (× 10^−3) S^−1
- kon [3]: 12.0 ± 1.0 (× 10^5) M^−1 S^−1
- koff [4]: 840 ± 55 (× 10^−3) S^−1
- kon [4]: 16.5 ± 0.5 (× 10^5) M^−1 S^−1

Molecule: L104EA29LIg: double-site CTLA4 mutant Ig fusion, L104E and alanine +29 to leucine
- slower “off” rate than wild type CTLA4Ig [4]: approximately 4 fold

Molecule: L104EA29TIg: double-site CTLA4 mutant Ig fusion, L104E and alanine +29 to threonine
- slower “off” rate than wild type CTLA4Ig [4]: approximately 4 fold

Molecule: L104EA29WIg: double-site CTLA4 mutant Ig fusion, L104E and alanine +29 to tryptophan
- slower “off” rate than wild type CTLA4Ig [4]: approximately 4 fold

B1: L104EA29YXC120S (receptor)
chain: MHVAQPAVVLASSRGIASFVCEYASPGKYTEVRVTVLRQADSQVTEVCAATYMMGNELTFLDDSICTGTSSGNQVNLTIQGLRAMDTGLYICKVELMYPPPYYEGIGNGTQIYVIDPEPSPDSD
notes: it was 'prepared in an identical manner' to CTLA4XC120S; also called monomeric L104EA29Y extracellular domain
- koff [5]: 0.3 s⁻¹
- kon [5]: 1.14e+06 M⁻¹ s⁻¹
- fold lower binding affinity than the respective dimer [6]: 35 to 80 fold
- fold higher affinity than CTLA4XC120S [7]: ~2 fold
- fold slower rate of dissociation than CTLA4XC120S [7]: ~3 fold
- Kd [8]: 85 nM
- koff [9]: 0.071 s⁻¹
- kon [9]: 830000 M⁻¹ s⁻¹
- Kd [10]: 267 nM
- fold higher affinity than CTLA4XC120S [11]: ~2 fold
- fold slower rate of dissociation than CTLA4XC120S [11]: ~3 fold

B2: L104EA29YXC120S: single chain (monomeric) L104EA29Y extracellular domain with cysteine 120 to serine mutation (protein)
chain: MHVAQPAVVLASSRGIASFVCEYASPGKYTEVRVTVLRQADSQVTEVCAATYMMGNELTFLDDSICTGTSSGNQVNLTIQGLRAMDTGLYICKVELMYPPPYYEGIGNGTQIYVIDPEPSPDSD
- koff [3]: 71 ± 5 (× 10^−3) S^−1
- kon [3]: 8.3 ± 0.26 (× 10^5) M^−1 S^−1
- higher affinity than CTLA4XC120S to CD80Ig ([3]; monomeric proteins): approximately 2 fold
- slower rate of dissociation from CD80Ig than CTLA4XC120S ([3]; monomeric proteins): approximately 3 fold
- koff [4]: 300 ± 10 (× 10^−3) S^−1
- kon [4]: 11.4 ± 1.6 (× 10^5) M^−1 S^−1
- higher affinity than CTLA4XC120S to CD86Ig ([4]; monomeric proteins): approximately 2 fold
- slower rate of dissociation from CD86Ig than CTLA4XC120S ([4]; monomeric proteins): approximately 3 fold
